Test results as given in patent US20090286724A1, “AGGREGABLE GLP-1 ANALOGUE AND SUSTAINED-RELEASE PHARMACEUTICAL COMPOSITION” (CHUGAI SEIYAKU KABUSHIKI KAISHA, priority 2005, published 2009).
Ends that are not written are not given here.

What was measured:
[1] = Evaluation for aggregability by stirring in PBS (absorbance at 350 nm, monomer by RP-HPLC); type: physicochemical; conditions: 1 mg/mL in PBS
Protocol: Each of the GLP-1 analogue and WT-GLP-1 in Example 1 was dissolved in PBS at a concentration of 1 mg/mL, and the amount of monomer was determined by RP-HPLC. 450 μL of each of the same solutions was placed into a glass vial along with a stirring bar, and the solution was stirred with a stirrer at room temperature for 20 hours. After stirring, the absorbance of the solution at 350 nm was determined (DU640, manufactured by Beckman). As for the supernatant after centrifugation, the monomer quantification by RP-HPLC and CD measurement (J-725, manufactured by Jasco Co.) were carried out.
System: NanoSpace SI-2 (manufactured by Shiseido Co., Ltd.)
Column: Capcell PAK C18, 1 mm×75 mm (manufactured by Shiseido Co., Ltd.)
Eluent A: water/acetonitrile/TFA=949/50/1
Eluent B: water/acetonitrile/TFA=50/949/1
Elution method: Gradient from 80/20 to 20/80 (Eluent A/Eluent B)
The aggregability of Peptide 3 was evaluated in the same manner as the method shown in Example 2.

[2] = Precipitation of peptide as zinc salt, peptide in supernatant by RP-HPLC; type: physicochemical; conditions: Z/P=15, peptide 1 mg/mL, 100 mM HEPES pH 7.4, 25° C., 18 hours
Protocol: Further, zinc chloride was dissolved in Milli-Q water to give a final concentration of 1 mg/mL. 1 M HEPES buffer (pH 7.4) was separately prepared. To the aqueous solution of peptide, the HEPES buffer, Milli-Q water and the aqueous solution of zinc chloride were sequentially added, whereby a sample was prepared such that the final volume was 30 mL, the final concentration of peptide was 1 mg/mL, the final concentration of HEPES (pH 7.4) was 100 mM, and the ratio of zinc chloride to Peptide 1 became Z/P=1. The resulting solution was let stand at room temperature (25° C.) for 18 hours. […] The solution was subjected to a centrifugation procedure (10,000 g, 3 min) and decantation, whereby the white precipitate and supernatant were separated.
Further, zinc chloride was dissolved in Milli-Q water to give a final concentration of 1 mg/mL. 1 M HEPES buffer (pH 7.4) was separately prepared. […] The resulting solution was let stand at room temperature (25° C.) for 18 hours. […] The solution was subjected to a centrifugation procedure (10,000 g, 3 min) and decantation, whereby the white precipitate and supernatant were separated.

[3] = In vitro release test of GLP-1 from Zinc/GLP-1 complex; type: physicochemical; conditions: PBS pH 7.4, 37° C.
Protocol: The quantification of GLP-1 analogue was carried out using RP-HPLC.
400 μg of each of WT-GLP-1 and GLP-1 analogue (Peptide 1) was dissolved in a 1 mM HCl solution (200 μL, pH: 2.8) containing 2 mg/mL zinc chloride. 100 μL of each of the resulting solutions was added to E-tube and diluted with a 1 mM HCl solution, whereby a 1 mg/mL solution was prepared. Then, 20 μL of PB (pH: 8.9, 100 mM) was added thereto, whereby a complex of Zinc/GLP-1 was formed. After the resulting mixture was centrifuged at 15,000 rpm for 5 minutes, the supernatant was removed, whereby a Zinc/GLP-1 complex was obtained.
PBS (0.5 mL, pH: 7.4) was added to E-tube containing the Zinc/GLP-1 complex at 37° C. The E-tube was centrifuged at different time points, and the supernatant was sampled, and 0.5 mL of PBS was freshly added thereto. 20 μL of 0.2 M HCl was added to 200 μL of the sample, and quantification was carried out by RP-HPLC.

[4] = peptide 100 μg/mL, 100 mM HEPES pH 7.4, 25° C., 18 hours
Protocol: Further, zinc chloride was dissolved in Milli-Q water to give a final concentration of 0.1 mg/mL. 1 M HEPES (N-[2-hydroxyethyl]piperazine-N′-[2-ethanesulfonic acid]) buffer (pH 7.4) was separately prepared. To each of the aqueous solutions of peptide, the HEPES buffer, Milli-Q water and the aqueous solution of zinc chloride were sequentially added, whereby samples were prepared such that the final volume was 1 mL, the final concentration of peptide was 100 μg/mL, the final concentration of HEPES (pH 7.4) was 100 mM, and the ratio of zinc chloride to the mole number of peptide became various ratios (Z/P=0 to 30). These samples were let stand at room temperature (25° C.) for 18 hours. Each mixture was centrifuged (10,000 g, 3 min), and the concentration of peptide in the supernatant was determined by RP-HPLC.

Human GLP-1 receptor = Human GLP-1 receptor (human, UniProt P43220); assay: cell-based or functional assay

Peptide 3: comparative GLP-1 analogue with an isoelectric point nearly equal to that of Peptide 1 (HGEGTFTSDVKSYLEGQAAKEFIAWLVKGRG)
aggregability compared with WT-GLP-1 ([1]; stirred 20 hours): an increase in the aggregability compared with that of WT-GLP-1 was not observed | UV 350 nm Absorbance ([1]; stirred at room temperature for 20 hours): 0.06 | RP-HPLC Amount of residual monomer (%) ([1]; stirred at room temperature for 20 hours, supernatant after centrifugation): 95%

CC[C@H](C)[C@H](NC(=O)[C@H](Cc1ccccc1)NC(=O)[C@H](CCC(=O)O)NC(=O)[C@H](CCCCN)NC(=O)[C@H](C)NC(=O)[C@H](C)NC(=O)[C@H](CCC(N)=O)NC(=O)CNC(=O)[C@H](CCC(=O)O)NC(=O)[C@H](CC(C)C)NC(=O)[C@H](Cc1ccc(O)cc1)NC(=O)[C@H](CO)NC(=O)[C@H](CO)NC(=O)[C@@H](NC(=O)[C@H](CC(=O)O)NC(=O)[C@H](CO)NC(=O)[C@@H](NC(=O)[C@H](Cc1ccccc1)NC(=O)[C@@H](NC(=O)CNC(=O)[C@H](CCC(=O)O)NC(=O)[C@H](C)NC(=O)[C@@H](N)Cc1c[nH]cn1)[C@@H](C)O)[C@@H](C)O)C(C)C)C(=O)N[C@@H](C)C(=O)N[C@@H](Cc1c[nH]c2ccccc12)C(=O)N[C@@H](CC(C)C)C(=O)N[C@H](C(=O)N[C@@H](CCCCN)C(=O)NCC(=O)N[C@@H](CCCNC(=N)N)C(=O)NCC(=O)O)C(C)C [WT, GLP-1(7-37)]
peptide precipitated as a zinc salt [2]: 95.7% | release observed until day [3]: 14 days

HGEGTFTSDVSSYLEGQAAKEFIRWLVKGRG [Peptide 1, [Gly^8]-[Arg^30]-GLP-1(7-37)]
ratio of added zinc to peptide (Z/P) when the solubility was the lowest [4]: around 1

B1: [Gly^8]-[Arg^30]-GLP-1(7-37) (peptide)
peptide: HGEGTFTSDVSSYLEGQAAKEFIRWLVKGRG
EC50 value for cAMP production (Human GLP-1 receptor): 90.2 pM
